Laboratory results: patent publication US20260275312, “CRISPR NUCLEASE POLYPEPTIDES AND GENE EDITING SYSTEMS COMPRISING SUCH” (ARBOR BIOTECHNOLOGIES, INC., published 2026)

Key:
[1] = target: T1, Nuclease S W509R/T72R/I845R (synthetic construct, W509R,T72R,I845R); assay: cell_activity; HEK293T; PAM AACC; conditions: tags: N-term SV40 NLS, XTEN linker + C-term nucleoplasmin NLS
T1 chain: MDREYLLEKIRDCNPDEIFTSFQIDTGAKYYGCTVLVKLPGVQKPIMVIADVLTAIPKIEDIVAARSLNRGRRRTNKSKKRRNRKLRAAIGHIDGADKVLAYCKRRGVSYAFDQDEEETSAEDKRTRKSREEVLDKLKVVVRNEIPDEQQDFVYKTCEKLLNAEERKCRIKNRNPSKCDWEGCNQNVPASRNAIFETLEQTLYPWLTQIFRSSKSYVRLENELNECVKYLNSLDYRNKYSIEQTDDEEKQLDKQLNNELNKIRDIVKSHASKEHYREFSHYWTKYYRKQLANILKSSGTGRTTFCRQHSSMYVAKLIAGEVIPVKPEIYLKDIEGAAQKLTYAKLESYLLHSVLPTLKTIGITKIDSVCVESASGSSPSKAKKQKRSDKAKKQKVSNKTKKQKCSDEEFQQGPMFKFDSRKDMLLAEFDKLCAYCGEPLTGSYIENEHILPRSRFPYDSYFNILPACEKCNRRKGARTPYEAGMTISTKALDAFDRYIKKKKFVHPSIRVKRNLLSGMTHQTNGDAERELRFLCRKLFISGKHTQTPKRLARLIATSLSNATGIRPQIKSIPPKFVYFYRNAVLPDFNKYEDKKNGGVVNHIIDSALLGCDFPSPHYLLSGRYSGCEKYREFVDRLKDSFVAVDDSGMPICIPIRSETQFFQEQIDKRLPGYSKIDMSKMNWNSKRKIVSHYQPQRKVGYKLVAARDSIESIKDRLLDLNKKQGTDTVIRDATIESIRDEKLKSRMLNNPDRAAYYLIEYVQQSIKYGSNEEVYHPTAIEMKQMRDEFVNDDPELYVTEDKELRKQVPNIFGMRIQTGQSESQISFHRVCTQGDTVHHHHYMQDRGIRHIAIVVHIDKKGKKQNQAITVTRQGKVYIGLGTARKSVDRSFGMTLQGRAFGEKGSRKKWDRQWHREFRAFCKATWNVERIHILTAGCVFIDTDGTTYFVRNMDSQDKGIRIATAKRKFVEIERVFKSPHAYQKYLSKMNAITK
Description: (§1) HEK293T cells were transfected with plasmids expressing the Nuclease S polypeptides and the gRNAs provided herein following the methods provided in Example 1 above. Gene editing efficiencies were determined by NGS following the methods also provided in Example 1. The NGS results were analyzed also following the methods provided in Example 1 above.
(§2) Each Nuclease S variant was cloned as described in Example 6. HEK293T cells were further transfected with a plasmid encoding a Nuclease S variant and a plasmid encoding an RNA guide of Table 11, followed by NGS analysis, as described in Example 5. For each target, indel ratios, referring to the percentage of NGS reads comprising indels, were calculated for the reference Nuclease S (SEQ ID NO: 49) and for each Nuclease S variant. The indel ratios shown in Table 13 were calculated as the average of two bioreplicates, each of which contained two technical replicates.

[2] = target: T2, Nuclease S H280R/T72R/I845R (synthetic construct, H280R,T72R,I845R); assay: cell_activity; HEK293T; PAM AACC; conditions: tags: N-term SV40 NLS, XTEN linker + C-term nucleoplasmin NLS
T2 chain: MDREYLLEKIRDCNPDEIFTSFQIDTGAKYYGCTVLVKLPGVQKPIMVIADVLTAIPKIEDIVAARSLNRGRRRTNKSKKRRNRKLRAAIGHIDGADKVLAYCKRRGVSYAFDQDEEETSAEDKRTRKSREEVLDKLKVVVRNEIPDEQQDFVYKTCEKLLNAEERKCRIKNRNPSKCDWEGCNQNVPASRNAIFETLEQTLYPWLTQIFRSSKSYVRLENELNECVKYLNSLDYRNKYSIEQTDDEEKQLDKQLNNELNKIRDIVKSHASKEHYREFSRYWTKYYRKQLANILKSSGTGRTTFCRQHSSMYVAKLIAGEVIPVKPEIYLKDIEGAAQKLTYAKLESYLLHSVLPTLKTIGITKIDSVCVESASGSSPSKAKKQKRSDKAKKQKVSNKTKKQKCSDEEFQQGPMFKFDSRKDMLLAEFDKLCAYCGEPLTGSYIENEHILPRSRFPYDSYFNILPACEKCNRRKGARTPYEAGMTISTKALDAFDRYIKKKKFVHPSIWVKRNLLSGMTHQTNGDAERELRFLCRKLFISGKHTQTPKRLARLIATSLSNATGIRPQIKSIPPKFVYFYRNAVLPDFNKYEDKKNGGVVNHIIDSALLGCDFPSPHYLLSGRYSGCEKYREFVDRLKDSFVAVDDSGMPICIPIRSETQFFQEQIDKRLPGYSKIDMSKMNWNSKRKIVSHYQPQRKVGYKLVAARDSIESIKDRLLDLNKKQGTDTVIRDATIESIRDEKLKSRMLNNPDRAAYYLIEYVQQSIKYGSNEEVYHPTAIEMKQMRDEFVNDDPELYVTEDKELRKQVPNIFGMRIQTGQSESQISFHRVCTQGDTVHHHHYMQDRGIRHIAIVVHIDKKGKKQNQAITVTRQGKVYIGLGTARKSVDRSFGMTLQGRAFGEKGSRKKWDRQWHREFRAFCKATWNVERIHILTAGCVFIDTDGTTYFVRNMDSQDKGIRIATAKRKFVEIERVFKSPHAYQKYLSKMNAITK
Description: as §1, §2

B1: S AAVS1-T7 RNA guide ; AAVS1-T7 target (S) (ssRNA ; dsDNA)
RNA: GGCUAUAAUCCAUGCUGACCGUUGUAUUCGGAUGGGAGUAAAAGGUUGAGUACACCUGGAAACAAAACGACAUAAAGGUGUUCUCCCAUCUGUGUACAAAGAGCAGAUAUAUGAGUUGAUAAGUAAUAUGUUGCACGUAUGGACUUUGACAGUCUGUACCUCUGCGUGAAAGACAUAUUGCGUUAUUCAUAUAUCUGUGAGUCUGUUCUAAAUUUAAAGGUUUAGGGAA
DNA 1: GGCTATAATCCATGCTGACC
DNA 2: GGTCAGCATGGATTATAGCC
[1]
  activity: 0.305 indel ratio
[2]
  activity: 0.333 indel ratio
